The values below come from paper doi:10.1101/713933.

The target in the assay is portal protein of bacteriophage P23-45 (in situ, in the procapsid) (bacteriophage P23-45 (Thermus thermophilus phage)). As to the kind of experiment: cryo-EM structure.

In general, stoichiometry N refers to the number of molecules, sites or subunits per partner or assembly. The substance “portal protein of bacteriophage P23-45 (in situ, in the procapsid) (natural protein)” gave a stoichiometry N of 12 subunits.
